{"source": "patent US20240206509A1", "about": "(CLARA FOODS, published 2024)", "binders": {"B1": {"name": "native chicken ovomucoid (nOVD) (other)", "chain": "AEVDCSRFPNATDKEGKDVLVCNKDLRPICGTDGVTYTNDCLLCAYSIEFGTNISKEHDGECKETVPMNCSSYANTTSEDGKVMVLCNRAFNPVCGTDGVTYDNECLLCAHKVEQGASVDKRHDGGCRKELAAVSVDCSEYPKPDCTAEDRPLCGSDNKTYGNKCNFCNAVVESNGTLTLSHFGKC", "modifications": "complex branched N-linked glycosylation (that includes mannose), as in chicken egg white"}}, "molecular_target": "bovine trypsin (bovine, UniProt P00760 24-246)", "sequence (P00760 24-246)": "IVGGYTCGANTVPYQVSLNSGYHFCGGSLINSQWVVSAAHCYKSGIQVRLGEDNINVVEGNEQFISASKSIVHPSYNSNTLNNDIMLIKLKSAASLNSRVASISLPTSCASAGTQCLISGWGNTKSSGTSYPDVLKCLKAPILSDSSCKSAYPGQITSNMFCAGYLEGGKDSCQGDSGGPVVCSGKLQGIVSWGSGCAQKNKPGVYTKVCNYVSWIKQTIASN", "assay": "cell-based or functional assay"}
{"binder": "B1", "values": [{"measurement": "Trypsin inhibition activity", "value": 13700, "unit": "TIU/g"}]}
